Laboratory results published in patent US6958236B2, “Control of gene expression in plants” (priority 2000, dated 2005).

Test system: pCGS154 reporter
Experiment: Transient transfection of S2 Drosophila cells with luciferase reporter and EcR receptor plasmids
Assay type: cell-based
Settings: for Fold Activation With Chemistry: Example 6, third column (LLV, LMV), 0.2 μM tebufenozide; for Fold Activation With Chemistry Assay #1 / Fold Activation With Chemistry Assay #2: Example 7, 0.2 μM tebufenozide; for Assay # 1 Fold Activation With Chemistry / Assay # 2 Fold Activation With Chemistry: Example 6, 0.2 μM tebufenozide vs without chemistry, normalized to pCGS154 reporter without receptor
Protocol: An in vivo cell based assay is designed to measure transcriptional activation by the receptors of a reporter plasmid. S2 Drosophila cells (ATCC CRL-1963) are transiently transfected with luciferase reporter and receptor expression plasmids using the calcium phosphate precipitation procedure (Di Nocera and David (1983) PNAS 80, 7095-7098). S2 cells are plated in 96 well format at a density of 2×10^5 in 166.6 μl of Schneider's Drosophila media supplemented with antibiotics and 10% heat inactivated fetal bovine serum (GIBO-BRL). The following day, 33.4 μl of a calcium phosphate precipitate containing 3-6 ng of pCGS154 reporter plasmid, 3-6 ng of EcR receptor plasmid along with salmon sperm DNA to a total of 400 ng DNA per well is added. Chemical ligands are added 16-24 hours after DNA addition to the cells. Cells are then harvested and extracted 24 hours after chemistry addition following the procedures for the luciferase assay by centrifuging and resuspending the cell pellets in 100 μl of cell culture lysis reagent (Promega). Luciferase activity is quantitated using chemiluminescence (Promega) using an analytical luminescence model 2001 luminometer.
S2 cells contain Drosophila EcR and USP. The endogenous USP can be used as the heterodimerization partner for EcR or exogenous USP expression plasmid can be added to the assay.
To compare the activities of Manduca and Drosophila EcR, S2 cells are transiently transfected using the above procedure with the reporter plasmid pCGS 154 and either full-length Drosophila EcR, DDV, full-length Manduca EcR, or MMV. Tebufenozide at 0.2 µM and 2 μM is used as the chemical ligand. Luciferase assays are performed as described above. All of the results are normalized as a ratio of activity to the light unit value for the pCGS154 reporter without chemistry.
The activities of the EcR-VP16 chimeras are compared by transiently transfecting S2 cells as described in Example 3. Tebufenozide is added to the cells at 0.2 μM concentration. Results are expressed as fold activation, a ratio of the activity of the constructs with chemistry added as compared to activity of the constructs without chemistry. All results are normalized to the luciferase activity of the pCGS154 reporter without receptor addition.
(§1) The activities of the EcR-VP16 chimeras are compared by transiently transfecting S2 cells as in Example 3. Tebufenozide is added to the cells at 0.2 μM concentration. Results are expressed as fold activation of constructs with chemistry as compared to without chemistry. All results are normalized to the luciferase activity of the pCGS154 reporter without receptor.
as §1, with “chemistry addition.” for “chemistry.”

B1: LLV: EcR chimera: Locusta migratoria C+D and E domains, VP16; SEQ ID NO:81-82 (protein)
chain: MGREDLSPLSSLNGYSADSCDAKKKKGAAPRQQEELCLVCGDRASGYHYNALTCEGCKGFFRRSITKNAVYQCKYGNNCEIDMYMRRKCQECRLKKCLTVGMRPECVVPEYQCAVKRKEKKAQKDKDKPNSTTNGSPEVMMLKDIDAKVEPERPLSNGIKPVSPEQEELIHRLVYFQNEYESPSEEDLRRVTSQPTEGEDQSDVRFRHITEITILTVQLIVEFAKRLPGFDKLLREDQIALLKACSSEVMMFRMARRYDVNSDSILFANNQPYTKDSYNLAGMGETIEDMLRFCRQMYAMKVDNAEYALLTAIVIFSERPSLVEGWKVEKIQEIYLEALKAYVDNRRRPKSGTIFAKLLSVLTELRTLGNQNSEMCFSLKLKNKKLPPFLAEIWDVIPKLAPPTDVSLGDELHLDGEDVAMAHADALDDFDLDMLGDGDSPGPGFTPHDSAPYGALDMADFEFEQMFTDALGIDEYGG
Fold Activation With Chemistry: 0.47 fold

B2: MLV: EcR chimera: Manduca sexta C+D domains, Locusta migratoria E domain, VP16; SEQ ID NO:85-86 (protein)
chain: MGREELSPASSINGCSTDGEPRRQKKGPAPRQQEELCLVCGDRASGYHYNALTCEGCKGFFRRSVTKNAVYICKFGHACEMDMYMRRKCQECRLKKCLAVGMRPECVVPESTCKNKRREKEAQREKDKLPVSTTTVDDHMPAIMQCDPPPPEAARIHEVVPRFLTEKLMEQNRLKNVTPLSANQKSLIARLVWYQNEYESPSEEDLRRVTSQPTEGEDQSDVRFRHITEITILTVQLIVEFAKRLPGFDKLLREDQIALLKACSSEVMMFRMARRYDVNSDSILFANNQPYTKDSYNLAGMGETIEDMLRFCRQMYAMKVDNAEYALLTAIVIFSERPSLVEGWKVEKIQEIYLEALKAYVDNRRRPKSGTIFAKLLSVLTELRTLGNQNSEMCFSLKLKNKKLPPFLAEIWDVIPKLAPPTDVSLGDELHLDGEDVAMAHADALDDFDLDMLGDGDSPGPGFTPHDSAPYGALDMADFEFEQMFTDALGIDEYGG
Fold Activation With Chemistry Assay #1: 1.7 fold | Fold Activation With Chemistry Assay #2: 1.0 fold

B3: MDV: EcR chimera: Manduca sexta C+D domains, Drosophila melanogaster E domain, VP16 activation domain; SEQ ID NO:63-64 (protein)
chain: MGREELSPASSINGCSTDGEPRRQKKGPAPRQQEELCLVCGDRASGYHYNALTCEGCKGFFRRSVTKNAVYICKFGHACEMDMYMRRKCQECRLKKCLAVGMRPECVVPESTCKNKRREKEAQREKDKLPVSTTTVDDHMPAIMQCDPPPPEAARIHEVVPRFLTEKLMEQNRLKNVTPLSANQKSLIARLVWYQDGYEQPSEEDLRRIMSQPDENESQTDVSFRHITEITILTVQLIVEFAKGLPAFTKIPQEDQITLLKACSSEVMMLRMARRYDHSSDSIFFANNRSYTRDSYKMAGMADNIEDLLHFCRQMFSMKVDNVEYALLTAIVIFSDRPGLEKAQLVEAIQSYYIDTLRIYILNRHCGDSMSLVFYAKLLSILTELRTLGNQNAEMCFSLKLKNRKLPKFLEEIWDVHAIPPKLAPPTDVSLGDELHLDGEDVAMAHADALDDFDLDMLGDGDSPGPGFTPHDSAPYGALDMADFEFEQMFTDALGIDEYGG
Assay # 1 Fold Activation With Chemistry: 1.20 fold | Assay # 2 Fold Activation With Chemistry: 1.18 fold | Fold Activation With Chemistry Assay #1: 1.1 fold | Fold Activation With Chemistry Assay #2: 1.1 fold

B4: MMV: EcR chimera: Manduca sexta C+D and E domains, VP16; SEQ ID NO:93-94 (protein)
chain: MGREELSPASSINGCSTDGEPRRQKKGPAPRQQEELCLVCGDRASGYHYNALTCEGCKGFFRRSVTKNAVYICKFGHACEMDMYMRRKCQECRLKKCLAVGMRPECVVPESTCKNKRREKEAQREKDKLPVSTTTVDDHMPAIMQCDPPPPEAARIHEVVPRFLTEKLMEQNRLKNVTPLSANQKSLIARLVWYQEGYEQPSEEDLKRVTQTWQLEEEEEEETDMPFRQITEMTILTVQLIVEFAKGLPGFSKISQSDQITLLKASSSEVMMLRVARRYDAATDSVLFANNQAYTRDNYRKAGMSYVIEDLLHFCRCMYSMSMDNVHYALLTAIVIFSDRPGLEQPLLVEEIQRYYLKTLRVYILNQHSASPRCAVLFGKILGVLTELRTLGTQNSNMCISLKLKNRKLPPFLEEIWDVAEVSTTKLAPPTDVSLGDELHLDGEDVAMAHADALDDFDLDMLGDGDSPGPGFTPHDSAPYGALDMADFEFEQMFTDALGIDEYGG
Assay # 1 Fold Activation With Chemistry: 87.65 fold | Assay # 2 Fold Activation With Chemistry: 151.06 fold | Fold Activation With Chemistry Assay #1: 719.2 fold | Fold Activation With Chemistry Assay #2: 595.1 fold | No Chemistry (luciferase activity as ratio to pCGS154 reporter without chemistry) (reporter CGS154, no chemical ligand): 1

B5: DMV: EcR chimera: Drosophila melanogaster C+D domains, Manduca sexta E domain, VP16; SEQ ID NO:71-72 (protein)
chain: MGRDDLSPSSSLNGYSANESCDAKKSKKGPAPRVQEELCLVCGDRASGYHYNALTCEGCKGFFRRSVTKSAVYCCKFGRACEMDMYMRRKCQECRLKKCLAVGMRPECVVPENQCAMKRREKKAQKEKDKMTTSPSSQHGGNGSLASGGGQDFVKKEILDLMTCEPPQHATIPLLPDEILAKCQARNIPSLTYNQLAVIYKLIWYQEGYEQPSEEDLKRVTQTWQLEEEEEEETDMPFRQITEMTILTVQLIVEFAKGLPGFSKISQSDQITLLKASSSEVMMLRVARRYDAATDSVLFANNQAYTRDNYRKAGMSYVIEDLLHFCRCMYSMSMDNVHYALLTAIVIFSDRPGLEQPLLVEEIQRYYLKTLRVYILNQHSASPRCAVLFGKILGVLTELRTLGTQNSNMCISLKLKNRKLPPFLEEIWDVAEVSTTKLAPPTDVSLGDELHLDGEDVAMAHADALDDFDLDMLGDGDSPGPGFTPHDSAPYGALDMADFEFEQMFTDALGIDEYGG
Assay # 1 Fold Activation With Chemistry: 8.67 fold | Assay # 2 Fold Activation With Chemistry: 3.72 fold

B6: LMV: EcR chimera: Locusta migratoria C+D domains, Manduca sexta E domain, VP16; SEQ ID NO:83-84 (protein)
chain: MGREDLSPLSSLNGYSADSCDAKKKKGAAPRQQEELCLVCGDRASGYHYNALTCEGCKGFFRRSITKNAVYQCKYGNNCEIDMYMRRKCQECRLKKCLTVGMRPECVVPEYQCAVKRKEKKAQKDKDKPNSTTNGSPEVMMLKDIDAKVEPERPLSNGIKPVSPEQEELIHRLVWYQEGYEQPSEEDLKRVTQTWQLEEEEEEETDMPFRQITEMTILTVQLIVEFAKGLPGFSKISQSDQITLLKASSSEVMMLRVARRYDAATDSVLFANNQAYTRDNYRKAGMSYVIEDLLHFCRCMYSMSMDNVHYALLTAIVIFSDRPGLEQPLLVEEIQRYYLKTLRVYILNQHSASPRCAVLFGKILGVLTELRTLGTQNSNMCISLKLKNRKLPPFLEEIWDVAEVSTTKLAPPTDVSLGDELHLDGEDVAMAHADALDDFDLDMLGDGDSPGPGFTPHDSAPYGALDMADFEFEQMFTDALGIDEYGG
Fold Activation With Chemistry: 48.8 fold
